The record followed here is PMC10159993.

For test [1], the target named is H2AK119-biotinylated 185 bp nucleosome. Kind of test: FRET or BRET. (In general: BRET reads energy transfer from a luciferase to a nearby fluorophore.)
The next test concerns the target KDM2A(2–685) (human) (UniProt Q9Y2K7). The experiment in a line: FRET or BRET.

In test [1], “KDM2A(2–685) K99E/R105E/R128E/R152E (from UniProt Q9Y2K7 2-685) (domain or fragment)” returned a fold reduction of binding affinity against wild-type KDM2A of 20 fold.

“KDM2A(2–685) R152E (from UniProt Q9Y2K7 2-685) (domain or fragment)”: the fold reduction of binding affinity against wild-type KDM2A in test [1] worked out at 4 fold.

Consider “unmodified wild-type 147 bp nucleosome (complex)”, for which the ratio of IC50 (147 bp over 185 bp nucleosome as competitor) in the test with KDM2A(2–685) (human) is 10 fold.
